# Assay results as given in publication PMC9022993.
# Molecular target: human parkin, full-length, affinity tag cleaved (human) (UniProt O60260)
# Assay: ITC; parkin (20 µM in 162 µl) in the cell titrated with the chimera (mG2-Ub 100 µM, CISD1-Ub 212 µM, mG2-pUb 84 µM, CISD1-pUb 106 µM); 18°C or 25°C; 25 mM HEPES or 20 mM Tris, 100 mM NaCl, 250 µM TCEP, pH 7.5 or 8.0; duplicate; single-site model
# Chain of human parkin, full-length, affinity tag cleaved (human) (O60260 whole entry): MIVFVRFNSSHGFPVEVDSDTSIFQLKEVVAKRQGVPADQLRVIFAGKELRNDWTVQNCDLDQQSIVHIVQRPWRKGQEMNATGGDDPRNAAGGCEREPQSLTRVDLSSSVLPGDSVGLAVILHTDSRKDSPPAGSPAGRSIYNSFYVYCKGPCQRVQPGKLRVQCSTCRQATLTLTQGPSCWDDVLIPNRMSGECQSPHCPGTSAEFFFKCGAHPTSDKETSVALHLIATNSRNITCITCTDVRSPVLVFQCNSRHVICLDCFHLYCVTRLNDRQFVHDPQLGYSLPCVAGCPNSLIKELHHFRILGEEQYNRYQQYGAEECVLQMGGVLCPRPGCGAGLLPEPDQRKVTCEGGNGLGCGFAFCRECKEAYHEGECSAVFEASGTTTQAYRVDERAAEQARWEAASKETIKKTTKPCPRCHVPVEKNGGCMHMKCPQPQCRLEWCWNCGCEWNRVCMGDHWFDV
Kd [µM],dH [kJ/mol],Substance
0.92,41,mG2-pUb (mG2-Ub phosphorylated by PINK1 at S65 of its Ub) (from UniProt Q8IXI2 402-582; P0CG63 1-76)
0.45,30,CISD1-pUb (CISD1-Ub phosphorylated by PINK1 at S65 of its Ub) (from UniProt Q9NZ45 32-108; P0CG63 1-76)
